Publication PMC5348764, “Functional differentiation of 3-ketosteroid Δ^1-dehydrogenase isozymes in Rhodococcus ruber strain Chol-4” (Microbial Cell Factories, 2017)

T1: KstD1 (Rhodococcus ruber, UniProt I0B6J0)
T1 sequence (I0B6J0 1-511): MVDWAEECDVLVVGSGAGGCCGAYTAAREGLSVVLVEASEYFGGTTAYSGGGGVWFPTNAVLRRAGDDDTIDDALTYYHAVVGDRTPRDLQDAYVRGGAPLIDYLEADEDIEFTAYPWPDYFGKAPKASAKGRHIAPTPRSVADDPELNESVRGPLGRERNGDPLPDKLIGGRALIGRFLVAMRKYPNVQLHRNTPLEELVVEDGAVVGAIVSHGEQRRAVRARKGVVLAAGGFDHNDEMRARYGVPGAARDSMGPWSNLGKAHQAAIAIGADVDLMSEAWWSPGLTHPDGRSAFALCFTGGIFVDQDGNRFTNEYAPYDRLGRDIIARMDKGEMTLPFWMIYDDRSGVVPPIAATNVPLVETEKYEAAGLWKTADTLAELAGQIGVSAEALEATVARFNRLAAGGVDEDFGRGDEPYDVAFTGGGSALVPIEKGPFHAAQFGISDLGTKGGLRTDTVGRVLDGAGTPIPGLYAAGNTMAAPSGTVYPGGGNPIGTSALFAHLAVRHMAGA

T2: KstD2 (Rhodococcus ruber, UniProt I0B6I6)
T2 sequence (I0B6I6 1-564): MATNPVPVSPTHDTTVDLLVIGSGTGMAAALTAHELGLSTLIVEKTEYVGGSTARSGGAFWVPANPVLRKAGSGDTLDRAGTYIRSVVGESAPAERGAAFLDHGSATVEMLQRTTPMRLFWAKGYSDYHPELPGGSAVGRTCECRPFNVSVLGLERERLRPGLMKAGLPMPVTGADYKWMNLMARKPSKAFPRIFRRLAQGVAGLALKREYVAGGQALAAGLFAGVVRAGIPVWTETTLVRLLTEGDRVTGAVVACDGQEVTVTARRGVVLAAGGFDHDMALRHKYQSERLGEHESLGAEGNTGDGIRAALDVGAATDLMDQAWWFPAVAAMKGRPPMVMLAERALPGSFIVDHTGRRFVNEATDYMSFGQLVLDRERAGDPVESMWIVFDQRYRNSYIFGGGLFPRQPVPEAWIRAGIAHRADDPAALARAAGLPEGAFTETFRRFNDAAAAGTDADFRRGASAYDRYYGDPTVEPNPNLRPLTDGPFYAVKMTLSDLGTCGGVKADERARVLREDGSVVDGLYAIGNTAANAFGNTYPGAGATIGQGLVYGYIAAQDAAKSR


Columns and labels:
KstD1 = molecular target: T1, KstD1; assay: DCPIP reduction at […] nm, cell-free extract, Michaelis-Menten fit; settings: read-out: KstD1 / Km; 80 µM DCPIP as electron acceptor, 50 mM Tris pH 7, 30 °C
KstD2 = molecular target: T2, KstD2; assay: as above; settings: read-out: KstD2 / Km; 80 µM DCPIP as electron acceptor, 50 mM Tris pH 7, 30 °C
[1] = substrate: C[C@]12C[C@H](O)[C@H]3[C@@H](CCC4=CC(=O)CC[C@@]43C)[C@@H]1CC[C@@H]2C(=O)CO; assay: cells, lysate or membranes; settings: 80 µM DCPIP as electron acceptor, 50 mM Tris pH 7, 30 °C
[2] = substrate: [H][C@@]12CCC3=CC(=O)CC[C@]3(CO)[C@@]1([H])CC[C@]1(C)C(=O)CC[C@@]21[H]; assay: cells, lysate or membranes; settings: pH 7.0; 30.0 °C
[3] = substrate: C[C@H](C(=O)O)[C@H]1CC[C@H]2[C@@H]3CCC4=CC(=O)CC[C@]4(C)[C@H]3CC[C@]12C; assay: cells, lysate or membranes; settings: 80 µM DCPIP as electron acceptor, 50 mM Tris pH 7, 30 °C
[4] = substrate: CC(=O)[C@H]1CC[C@H]2[C@@H]3CCC4=CC(=O)CC[C@]4(C)[C@H]3CC[C@]12C; assay: cells, lysate or membranes; settings: 80 µM DCPIP as electron acceptor, 50 mM Tris pH 7, 30 °C
[5] = substrate: C[C@]12CC[C@H]3[C@@H](CCC4=CC(=O)CC[C@@]43C)[C@@H]1CC[C@@H]2C(=O)CO; assay: cells, lysate or membranes; settings: 80 µM DCPIP as electron acceptor, 50 mM Tris pH 7, 30 °C
[6] = substrate: C[C@]12CC[C@H]3[C@@H](CCC4=CC(=O)CC[C@@]43C)[C@@H]1CC[C@@H]2O; assay: cells, lysate or membranes; settings: pH 7.0; 30.0 °C
[7] = substrate: C[C@]12CCC(=O)C[C@@H]1CC[C@@H]1[C@@H]2CC[C@]2(C)[C@@H](O)CC[C@@H]12; assay: cells, lysate or membranes
[8] = substrate: C[C@]12CCC(=O)C=C1CC[C@@H]1[C@@H]2CC[C@]2(C)C(=O)CC[C@@H]12; assay: cells, lysate or membranes; settings: pH 7.0; 30.0 °C

Molecule | Km (KstD1) [µM] | Km (KstD2) [µM] | Km [1] [µM] | Km [2] [µM] | Km [3] [µM] | Km [4] [µM] | Km [5] [µM] | Km [6] [µM] | Km ([7]; pH 7.0, 30.0 °C) [µM] | Km [8] [µM] | Km ([7]; 80 µM DCPIP as electron acceptor, 50 mM Tris pH 7, 30 °C) [µM]
C[C@]12CCC(=O)C=C1CC[C@H]1[C@@H]3CCC(=O)[C@@]3(C)CC[C@@]12O [9OHAD, 9α-hydroxy-4-androstene-3,17-dione] | 22.1 ± 7 | 543 ± 77.8 | – | – | – | – | – | – | – | – | –
KstD2 (Rhodococcus ruber) (protein) MATNPVPVSPTHDTTVDLLVIGSGTGMAAALTAHELGLSTLIVEKTEYVGGSTARSGGAFWVPANPVLRKAGSGDTLDRAGTYIRSVVGESAPAERGAAFLDHGSATVEMLQRTTPMRLFWAKGYSDYHPELPGGSAVGRTCECRPFNVSVLGLERERLRPGLMKAGLPMPVTGADYKWMNLMARKPSKAFPRIFRRLAQGVAGLALKREYVAGGQALAAGLFAGVVRAGIPVWTETTLVRLLTEGDRVTGAVVACDGQEVTVTARRGVVLAAGGFDHDMALRHKYQSERLGEHESLGAEGNTGDGIRAALDVGAATDLMDQAWWFPAVAAMKGRPPMVMLAERALPGSFIVDHTGRRFVNEATDYMSFGQLVLDRERAGDPVESMWIVFDQRYRNSYIFGGGLFPRQPVPEAWIRAGIAHRADDPAALARAAGLPEGAFTETFRRFNDAAAAGTDADFRRGASAYDRYYGDPTVEPNPNLRPLTDGPFYAVKMTLSDLGTCGGVKADERARVLREDGSVVDGLYAIGNTAANAFGNTYPGAGATIGQGLVYGYIAAQDAAKSR | – | – | 374.3 ± 74.5 | 347.4 ± 41.7 | 38.2 ± 6.6 | 33.8 ± 4.9 | 42.5 ± 5.8 | 107.9 ± 18.5 | 24.57 ± 7.8 | 40.1 ± 8.7 | –
KstD1 (Rhodococcus ruber) (protein) MVDWAEECDVLVVGSGAGGCCGAYTAAREGLSVVLVEASEYFGGTTAYSGGGGVWFPTNAVLRRAGDDDTIDDALTYYHAVVGDRTPRDLQDAYVRGGAPLIDYLEADEDIEFTAYPWPDYFGKAPKASAKGRHIAPTPRSVADDPELNESVRGPLGRERNGDPLPDKLIGGRALIGRFLVAMRKYPNVQLHRNTPLEELVVEDGAVVGAIVSHGEQRRAVRARKGVVLAAGGFDHNDEMRARYGVPGAARDSMGPWSNLGKAHQAAIAIGADVDLMSEAWWSPGLTHPDGRSAFALCFTGGIFVDQDGNRFTNEYAPYDRLGRDIIARMDKGEMTLPFWMIYDDRSGVVPPIAATNVPLVETEKYEAAGLWKTADTLAELAGQIGVSAEALEATVARFNRLAAGGVDEDFGRGDEPYDVAFTGGGSALVPIEKGPFHAAQFGISDLGTKGGLRTDTVGRVLDGAGTPIPGLYAAGNTMAAPSGTVYPGGGNPIGTSALFAHLAVRHMAGA | – | – | 161.6 ± 7.6 | 368.8 ± 102.4 | 76.1 ± 15.7 | 27.9 ± 9.5 | 21.6 ± 4.5 | 28.8 ± 7.4 | – | 34.2 ± 3.8 | –
KstD3 (Rhodococcus ruber) (protein) MIKQEYDIVVVGSGAGGMTAALTAAHRGASVVLVEKAPHYGGSSARSGGGVWIPNNEVLGAAGVTDTPEAARTYLHSIIGDVVPAGKIDTYIDRGPEMLSFVLEHSALELQWVPGYSDYYPEAPGGRLGGRSVEPKPFDGKRLGDDLALLEPDYVKGPPNFVITQADYKWLNLLMRNPRGPVRAAKVGVRYLWARARRRHLLVRGQALMAGLRMGLRDAGVPLLLNTALTDLVVEDGVVRGVRVESDGQQRTVRARRGVVIASGGFEHNEQMRTQYQRAPIGTEWTVGAKANTGDGIRAGQSLGAAVDFMDDAWWGPSFPLTGGPWFALSERSLPGSMMVNAAGRRFVNESAPYVEAVHAMYGGRHGRGDGPGENIPCWMILDQRYRNRYTFAGITPRSPFPKRWLKAGVVVRAGSIAELAGKIGVPAAALTATVERFNGFARAGRDEDFGRGESGYDHYYGDPRNKPNPSLGVIDKAPFYAIKVVPGDLGTKGGLRTDADARVLREDGTVIEGLYAAGNASGPVMGHTYAGPGATIGPAMTFAYLAVLDALARPEQPAVPPVSETVEQH | – | – | – | – | – | 43.6 ± 2.9 | 111.3 ± 4.0 | – | – | – | 181.1 ± 42.6
